Source: IntAct's records for PubMed 26040720

B1: Reticulophagy regulator 1 (Homo sapiens), Q9H6L5-1 (parent)
chain: MASPAPPEHAEEGCPAPAAEEQAPPSPPPPQASPAERQQQEEEAQEAGAAEGAGLQVEEAAGRAAAAVTWLLGEPVLWLGCRADELLSWKRPLRSLLGFVAANLLFWFLALTPWRVYHLISVMILGRVIMQIIKDMVLSRTRGAQLWRSLSESWEVINSKPDERPRLSHCIAESWMNFSIFLQEMSLFKQQSPGKFCLLVCSVCTFFTILGSYIPGVILSYLLLLCAFLCPLFKCNDIGQKIYSKIKSVLLKLDFGIGEYINQKKRERSEADKEKSHKDDSELDFSALCPKISLTVAAKELSVSDTDVSEVSWTDNGTFNLSEGYTPQTDTSDDLDRPSEEVFSRDLSDFPSLENGMGTNDEDELSLGLPTELKRKKEQLDSGHRPSKETQSAAGLTLPLNSDQTFHLMSNLAGDVITAAVTAAIKDQLEGVQQALSQAAPIPEEDTDTEEGDDFELLDQSELDQIESELGLTQDQEAEAQQNKKSSGFLSNLLGGH

Variants of: B1
Details: with MAP1LC3A

| effect of a mutation on the interaction | Variant |
| --- | --- |
| disrupting interaction strength | MASPAPPEHAEEGCPAPAAEEQAPPSPPPPQASPAERQQQEEEAQEAGAAEGAGLQVEEAAGRAAAAVTWLLGEPVLWLGCRADELLSWKRPLRSLLGFVAANLLFWFLALTPWRVYHLISVMILGRVIMQIIKDMVLSRTRGAQLWRSLSESWEVINSKPDERPRLSHCIAESWMNFSIFLQEMSLFKQQSPGKFCLLVCSVCTFFTILGSYIPGVILSYLLLLCAFLCPLFKCNDIGQKIYSKIKSVLLKLDFGIGEYINQKKRERSEADKEKSHKDDSELDFSALCPKISLTVAAKELSVSDTDVSEVSWTDNGTFNLSEGYTPQTDTSDDLDRPSEEVFSRDLSDFPSLENGMGTNDEDELSLGLPTELKRKKEQLDSGHRPSKETQSAAGLTLPLNSDQTFHLMSNLAGDVITAAVTAAIKDQLEGVQQALSQAAPIPEEDTDTEEGAAAAAADQSELDQIESELGLTQDQEAEAQQNKKSSGFLSNLLGGH [D453A;D454A;F455A;E456A;L457A;L458A] |
